Laboratory results taken from patent US20020049159A1 (published 2002).

Target: T1, OP-1 pro domain polypeptide (human, UniProt P18075 30-292)
T1 construct: Two pro domains (39 kDa each) stand in the soluble complex with one mature dimer; The complex was isolated from CHO conditioned medium; also called pro domain peptide
Assay: soluble complex purified from CHO conditioned medium without denaturants (Zn-IMAC, S-Sepharose, Sephacryl S-200HR gel filtration); elutes at an apparent 110 kDa
Method: In this example, OP-1 was expressed in mammalian (CHO, Chinese hamster ovary) cells as described in the art (see, for example, international application US90/05903 (WO 91/05802). The CHO cell conditioned media containing 0.5% FBS is initially purified using Immobilized Metal-Ion Affinity Chromatography (IMAC). The soluble OP-1 complex from conditioned media binds very selectively to the Zn-IMAC resin and a high concentration of imidazole (50 mM imidazole, pH 8.0) is required for the effective elution of the bound complex. The Zn-IMAC purified soluble OP-1 is next applied to an S-Sepharose action-exchange column equilibrated in 20 mM NaPO₄ (pH 7.0) with 50 mM NaCl. The protein then is applied to a Sephacryl S-200HR column equilibrated in TBS. Using substantially the same protocol, soluble morphogens can also be isolated from one or more body fluids, including milk, serum, cerebrospinal fluid or peritoneal fluid.

T1 sequence (P18075 30-292): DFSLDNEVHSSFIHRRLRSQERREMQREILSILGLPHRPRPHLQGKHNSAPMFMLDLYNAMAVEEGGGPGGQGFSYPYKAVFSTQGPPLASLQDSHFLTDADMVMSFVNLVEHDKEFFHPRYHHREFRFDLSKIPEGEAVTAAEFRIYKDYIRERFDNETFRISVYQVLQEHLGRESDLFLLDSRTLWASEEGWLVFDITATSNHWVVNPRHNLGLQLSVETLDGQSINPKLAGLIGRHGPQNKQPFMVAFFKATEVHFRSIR

binding result: binds
B1: mature human OP-1 dimer (recombinant, expressed in CHO cells) (ligand)
chain: STGSKQRSQNRSKTPKNQEALRMANVAENSSSDQRQACKKHELYVSFRDLGWQDWIIAPEGYAAYYCEGECAFPLNSYMNATNHAIVQTLVHFINPETVPKPCCAPTQLNAISVLYFDDSSNVILKKYRNMVVRACGCH
notes: Dimer of 35-36 kDa, glycosylated when made in CHO cells; also called hOP-1; human osteogenic protein 1
